# Target: HDAC1 (histone deacetylase 1), wild-type, Q13547
# Sequence (Q13547 whole entry): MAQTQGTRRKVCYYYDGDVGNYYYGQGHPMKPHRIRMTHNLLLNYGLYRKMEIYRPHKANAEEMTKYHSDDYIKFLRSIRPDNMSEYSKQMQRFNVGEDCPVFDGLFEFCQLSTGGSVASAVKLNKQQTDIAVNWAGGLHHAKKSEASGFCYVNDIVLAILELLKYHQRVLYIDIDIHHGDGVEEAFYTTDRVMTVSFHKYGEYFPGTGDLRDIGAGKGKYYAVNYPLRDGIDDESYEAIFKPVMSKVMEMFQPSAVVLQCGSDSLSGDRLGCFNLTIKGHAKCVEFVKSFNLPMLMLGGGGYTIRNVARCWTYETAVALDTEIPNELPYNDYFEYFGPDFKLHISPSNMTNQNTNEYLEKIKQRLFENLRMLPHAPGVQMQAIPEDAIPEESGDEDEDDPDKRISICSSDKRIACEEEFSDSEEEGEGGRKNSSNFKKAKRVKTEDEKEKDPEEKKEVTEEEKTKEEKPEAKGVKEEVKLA
protein,measurement,value
"SENP1 (Sentrin/SUMO-specific protease 1), wild-type (protein) MDDIADRMRMDAGEVTLVNHNSVFKTHLLPQTGFPEDQLSLSDQQILSSRQGHLDRSFTCSTRSAAYNPSYYSDNPSSDSFLGSGDLRTFGQSANGQWRNSTPSSSSSLQKSRNSRSLYLETRKTSSGLSNSFAGKSNHHCHVSAYEKSFPIKPVPSPSWSGSCRRSLLSPKKTQRRHVSTAEETVQEEEREIYRQLLQMVTGKQFTIAKPTTHFPLHLSRCLSSSKNTLKDSLFKNGNSCASQIIGSDTSSSGSASILTNQEQLSHSVYSLSSYTPDVAFGSKDSGTLHHPHHHHSVPHQPDNLAASNTQSEGSDSVILLKVKDSQTPTPSSTFFQAELWIKELTSVYDSRARERLRQIEEQKALALQLQNQRLQEREHSVHDSVELHLRVPLEKEIPVTVVQETQKKGHKLTDSEDEFPEITEEMEKEIKNVFRNGNQDEVLSEAFRLTITRKDIQTLNHLNWLNDEIINFYMNMLMERSKEKGLPSVHAFNTFFFTKLKTAGYQAVKRWTKKVDVFSVDILLVPIHLGVHWCLAVVDFRKKNITYYDSMGGINNEACRILLQYLKQESIDKKRKEFDTNGWQLFSKKSQEIPQQMNGSDCGMFACKYADCITKDRPINFTQQHMPYFRKRMVWEILHRKLL",deacetylase activity of HDAC1 precipitates,"In the presence of SENP1, the deacetylase activity of HDAC1 precipitates had a 70% reduction"
